# Reference: a protein production outcome set (Wang et al. 2014)
# Assay: label from the status in PepcDB records
row,Sequence,protein production
1,MTNVLWLQGGACSGNTMSFLNAEEPTVCDLIADFGIKVLWHPSLGLELGDNVQTLLWDCILGKIPLDILVFEGTVVNAPNGTGEWNRFADRPMKDWLNDLAQAASFVVAVGDCATWGGIPAMEPNPSESQGLQFLKRKEGGFLGKDFRAKSGLPVINIPGCPSHPDWITQILVAIATGRIGDIALDELNRPQTFFNTFTQTGCTRNVHFAYKATTAEFGQRKGCLFYDLGCRGPMTHSSCNRILWNRVSSKTRAGMPCLGCTEPEFPFFDLKPGTVFKTQTIMGVPKELPPGVSNKNYAVLTMVAKDTAPKWAEEDFFTV,failed
2,MTNWKPLVSVITPSYNARDYIEDTVHSVLDQSHPHWEMIIVDDCSTDGTRDILQQYEKIDERIHVVYLEENSGAAVARNKALERAQGRYVAFLDSDDKWKKDKLEKQLEFMMERSCAFSFTGYSLMAQDGTPLDKFIHAPESLTYDDALKNTIIGCLTVMIDREQTGQIQMPNIRTRQDLATWLSLLKKGFTAYGMNECLAEYRLVNNSISSNKWKAAKKTWFVYREIERLHFMKATWCFVQYAKNAVKKRLLEHHHHHH,not failed
3,MTPFPHASLFTPHSSRITPSLHLPVRLGNATFDTRHRTALTMSADRLEQLKTFHEEDPEDPFTRYALAQEHLKHDNASRALALFEELVETDPDYVGTYYHLGKLYERLDRTDDAIDTYAQGIEVAREEGTQKDLSELQDAKLKAEGVGFD,failed
4,MTPFTQSQRIKALFWLSLFHLLVIISSNYLVQLPITIFGFHTTWGAFSFPFIFLATDLTVRIFGAPLARRIIFAVMIPALLVSYVVSSLFYMGAWQGFAALANFNLFVARIAAASFMAYALGQILDVHVFNRLRQNRRWWLAPTASTLFGNISDTLAFFFIAFWRSPDAFMAGHWMEIALVDYCFKVLISIIFFLPMYGVLLNMLLKKLADKSEISPLPAS,not failed
5,MTPHPRLSIGLPVYNGEEYLAESLDALLGQTYENFELVISDNASTDGTRDICRRYAAQDSRIRYIRLPRNIGAAPNHNYVFTECRGELFKWASHDDLYARDLLRSCVAALDERPEVVLAHAGQAVIDGDGKVKVPYEYGLATDSPRAPERFRSLLFEPGGDDFYGVMRSAMLRRVKPHDSYHHADRTFVAEITLHGPFHQVPELLYFRRDHPTRAERANPSKRSRCVNLDPRRAGPLHPTPRLLAEYVWGFASAIGRAPLSSADRRACHRHLAAWLTSRVRPGVGERVEDRAPVDPDRLTVSVDDLVAGREGRQALEHHHHHH,failed
6,MTPIAQRDGQAIQLVGFDGDDTLWKSEDYYRTAEADFEAILSGYLDLGDSRMQQHLLAVERRNLKIFGYGAKGMTLSMIETAIELTEARIEARDIQRIVEIGRATLQHPVEVIAGVREAVAAIAADYAVVLITKGDLFHQEQKIEQSGLSDLFPRIEVVSEKDPQTYARVLSEFDLPAERFVMIGNSLRSDVEPVLAIGGWGIYTPYAVTWAHEQDHGVAADEPRLREVPDPSGWPAAVRALDAQAGRQQ,not failed
7,MTPIQDHPLRFALANELHARPFPISRAPCTVAYLAVKQPDAAVGRDRKADRAHLIDLLDRHGAPHPQPGATHYAGQIGRHWLKWESHTEFVTYTAFATGVSDRPFNPADFEVFPPDWLAAAPGQRVTSALLRVEEQLPEADIVAALADWFVPESLAVAHVLDRAAVAAGDFRIDPAGHMRFAVFVAPDTGERRIGRIIQRLCEIETYKAMSMLGFARVKALGPKLGELDSGLTGLMVKMTDGGHPAEDLLPQLLSTSAELETMAARSEFRLGATGAYEAIVNQRIASLREERFGGRQTFADFMLRRYEPAMRTVKSTERRLKRLSDRAIRAGDLLRTRVDVERSAQNQALLESMDRRADLALRLQHTVEGLSVVAVSYYAVSLVSAFLLPLSEWYGVDKKALIALVTLPVVGLVWLGIRRIRKKLH,failed
8,MTPPIAADYTAQAVSTDTIGYLHSTESGAGVDGPGMRFVFFVSGCQFRCLYCHNPDTWKLHNGRQVSVEQALSEVAPYARFLKFAGGVTISGGEPLMQHEFVGELFHEIKQRFGLHTALDTQGFLHERVSDAWFDDVDLVMLDIKHSDPEKYQALTGQPLQPTLDFALRLKRLRKKMWIRYVLVPGLTDGDADIEKLADFAASLGDVVERVEVLPFHQLGKDKWAQLGMEYQLNDTPIPTAEQAAHARALFASRGLKVTLEHHHHHH,not failed
9,MTPQFRALLVHLFTATGAVFAMLAMLAAVDAKWDLMFLWLVVAFFVDGLDGPMARRYHVKTYAPEFDGVLLDLIIDYLTYVFIPAFALFKSGLMDGWTGWLAIIIITFASAMYFADTRMKTKDNSFSGFPGCWNMVVLVIFALEPNFWVSLVLVTVLAVSMFLPLKFVHPVRTERWRAITLPMALAWTFFAGWAAWVGFHPESWAHWGLVVTSLYLIFAGIAQMVIPEKDTASPF,failed
10,MTPSKTTLVERCYKYIMSNEKNWSPYTVINRKSWVKNYIEPFFKDTKLIDINPVLIQTFINTTFNNCTFSSSKIRYRFISSVLKEAYRLREINENPCDFVKLPLEHHHHHH,failed
11,MTPVCAWIGSPGAKAQLSFAGRGHSTAKRRRGPAGEPAVPGEALPGARGSLKAHPKPWAAAMWARGCLHHIRVWFSWSQQGSGNGRSGWERLAREARGLWQLWCLPGTPNSSPLQTDM,failed
12,MTPYDIKDPDVRRRRFRPIPVRMLVPNVITLLAICAGLTSIRLSIEGRMSLAVYAIVFAAALDGIDGRIARMIKGQSKFGAELDSLADFVNFGVAPGLMLYFWQLHELGNAGWIAAMVFAISGGLRLARFNATMDDPNKPAFAANFFTGVPAPAGAITVLLPIYVAFLDLGRAPAAVTAAYTLLIAFLMVSRLPVFSGKTKRMRVPPELVLPAFVAVIVFIAILIAYPWHVLSIGTVLYLLALPLGYKSYRDQARAMDAATPAGGEISSPPSAPTLANLSEPPHDDDRPGRLH,failed
13,MTQAFSRVRFIMTQPSHPGNVGSAARAIKTMGFGELVLVAPRFPDMTAQPEAVALASGALDVLERAAVHDTLEEALAPVTLAFALTARVRDLGPPPCDIREAAGLARRHLDDTEAGVVAIVLGTERAGLTNAQIELCHRICHIPANPQYSSLNVAQALQLAAWELRYALLAGTGQPLLPASSAQQANPGAAPADGAAVQALLAHWEQALVAVGFLDPAHPKKLMPRMKHLLTRSALSRDEVDMLRGVCTAMIAPNRPK,failed
14,MTQFKLIGFDLDGTLVNSLPDLALSINSALKDVNLPQASENLVMTWIGNGADVLSQRAVDWACKQAEKELTEDEFKYFKRQFGFYYGENLCNISRLYPNVKETLEALKAQGYILAVVTNKPTKHVQPILTAFGIDHLFSEMLGGQSLPEIKPHPAPFYYLCGKFGLYPKQILFVGDSQNDIFAAHSAGCAVVGLTYGYNYNIPIAQSKPDWIFDDFADILKITQ,not failed
15,MTQIIKIDPLNPEIDKIKIAADVIRNGGTVAFPTETVYGLGANAFDGNACLKIFQAKNRPVDNPLIVHIADFNQLFEVAKDIPDKVLEIAQIVWPGPLTFVLKKTERVPKEVTAGLDTVAVRMPAHPIALQLIRESGVPIAAPSANLATRPSPTKAEDVIVDLNGRVDVIIDGGHTFFGVESTIINVTVEPPVLLRPGPFTIEELKKLFGEIVIPEFAQGKKEAEIALAPGMKYKHYAPNTRLLLVENRNIFKDVVSLLSKKYKVALLIPKELSKEFEGLQQIILGSDENLYEVARNLFDSFRELDKLNVDLGIMIGFPERGIGFAIMNRARKASGFSIIKAISDVYKYVNI,not failed
16,MTQLPPAIFLMGPTAAGKTDLAIELTKVLPCELISVDSALVYRGMDIGTAKPSRELLAQFPHRLIDILDPAESYSAADFRTDALAAMADITARGKIPLLVGGTMLYYKALLEGLADMPAADPQVRAELEEEAARLGWQALHDQLAAVDPESAARIHPNDPQRLTRALEVYRVSGLTMTAHRQRQLAQSTEAGASGRSQLPYTVANLAIAPANRQVLHQRIAQRFTQMLEQGFIDEVVALRSRSDLHAGLPSIRAVGYRQVWDHLDGKLTSAEMQERGIIATRQLAKRQFTWLRSWADLQWLDSLDCDNLPRALKYLGTISILSLEHHHHHH,failed
17,MTQLQISLLLTATISLLHLVVATPYEAYPIGKQYPPVARVNESFTFQISNDTYKSSVDKTAQITYNCFDLPSWLSFDSSSRTFSGEPSSDLLSDANTTLYFNVILEGTDSADSTSLNNTYQFVVTNRPSISLSSDFNLLALLKNYGYTNGKNALKLDPNEVFNVTFDRSMFTNEESIVSYYGRSQLYNAPLPNWLFFDSGELKFTGTAPVINSAIAPETSYSFVIIATDIEGFSAVEVEFELVIGAHQLTTSIQNSLIINVTDTGNVSYDLPLNYVYLDDDPISSDKLGSINLLDAPDWVALDNATISGSVPDELLGKNSNPANFSVSIYDTYGDVIYFNFEVVSTTDLFAISSLPNINATRGEWFSYYFLPSQFTDYVNTNVSLEFTNSSQDHDWVKFQSSNLTLAGEVPKNFDKLSLGLKANQGSQSQELYFNIIGMDSKITHSNHSANATSTRSSHHSTSTSSYTSSTYTAKISSTSAAATSSAPAALPAANKTSSHNKKAVAIACGVAIPLGVILVALICFLIFWRRRRENPDDENLPHAISGPDLNNPANKPNQENATPLNNPFDDDASSYDDTSIARRLAALNTLKLDNHSATESDISSVDEKRDSLSGMNTYNDQFQSQSKEELLAKPPVQPPESPFFDPQNRSSSVYMDSEPAVNKSWRYTGNLSPVSDIVRDSYGSQKTVDTEKLFDLEAPEKEKRTSRDVTMSSLDPWNSNISPSPVRKSVTPSPYNVTKHRNRHLQNIQDSQSGKNGITPTTMSTSSSDDFVPVKDGENFCWVHSMEPDRRPSKKRLVDFSNKSNVNVGQVKDIHGRIPEML,failed
18,MTQLQQSVIESQPGKLSDYLGHTRRNRFSIRLFSGLIGFILVLAVMATGYWLVFASDRYVSEASVIIRKTDSVTAPSFDLSMLIAGVAGVNRADQLLLREYLLSVDMLKKLDTELDLHAHYSDEHYDLLSRMWLKDMEWFHRHYLSRVSIEYDDYAGVLRINAQAYDPEIARAISNLLVREGERYMNQISHELAETQVSFLTTQVNLAQLRFQQVRQKLLAYQNKKGLLSPQATVESLNTLIAKLEEQRAQLKTQLASLPRTLDRNHPNLVMLRQSLAAIDRQITDEKAKLANPTGKTLNITMEEFQRLEMEVTFAQELYKAALTALEKGRIDATRMLDKVSVLQAPTLPEYPMEPRRIYNTLVTLLFALMLAGILKLLEGIILDHVD,failed
19,MTQPLRQYREKRDFRATAEPAGAARRPRAAARASEGLSFVIQRHQARRLHYDFRLEIDGVLVSWAVPKGPSRDPSVKRLAVHVEDHPLEYGGFSGDIPKGQYGAGHVDIWDSGVWIPRGDPRQGLRRGKLHFALRGRRLAGDWVLVRMSGEQDQWLLRKEDDEAAVPGDDAERAPATPPPAPEHAPAATPRGRRAAMPHTLAPQLATLVDSPPHGPGWSYEVKYDGYRILAACSAGGVRLVSRGNEDWQARMAPLARALGALKLGRGWLDGEVVVLDERGVADFQLLQNALDGQAEGLVFVAFDLPFWNGEDLRALPLQARQERLEDLLREVPEDAPLMLTQRLPVADDTEGKAAWNEACRLSLEGLICKRLDAPYRSGRSQGWLKLKCRPRQEFVIGGYTEPAGARRHLGALLVGLRQGRQLRYAGRVGTGFGAATLRTLGQRLAALRQDAKPFSGDVPRGRGDAAIHWVSPELVAEVNYAGITRDGLLRQASFAGLRADKPASEVRGEVAARPPAAKAATPSRRAGDGRAEVAGVRISHPDRLAYREPDYTKLQLAEYYAAIGPHILPHLRQRRVALLRCPDGAGTTCFFQKHLSQSLPAGVRRDGGHLVIESLPGLIALVQYGAIEFHTWGADTRHPDTPDRITLDLDPGPGVAWPAIVEGAQMARLLMQEVGLEPFLKTTGGKGLHLVAPLRPTQPWDTVKDFARALARQLAVALPDRFTANMAKARRERRIFVDYLRNGNGATAVAAFSARARDGAPVSMPLSWDALDAGDDLRGARWNIANALEQARRKPDPWADYAASRRTLGSRMQARLPRD,failed
20,MTQPNIIMTRVDERLIHGQGQLWVKFLNCNTVIVANDAVSEDKIQQSLMKTVIPSSIAIRFFSIQKVIDIIHKASPAQSIFIVVKDLQDAKLLVEGGVPITEINIGNIHKTDDKVAITQFISLGETDKSAIRCLAHDHHVVFNTKTTPAGNSASDVDILDYI,not failed
